Data taken from publication PMC10244618.
Where “and” joins values, the source holds several entries; their conditions need not be identical. Equal values may be shown once.

B1: NF2 (merlin) isoform 7, human, full length (507 aa, lacks exons 2-3 = isoform-1 residues 39-121; exon-16 C-terminus), P35240-4 (parent)
chain: MAGAIASRMSFSSLKRKQPKTFTVRIVTMDAEMEFNCEVKKQILDEKIYCPPEASVLLASYAVQAKYGDYDPSVHKRGFLAQEELLPKRVINLYQMTPEMWEERITAWYAEHRGRARDEAEMEYLKIAQDLEMYGVNYFAIRNKKGTELLLGVDALGLHIYDPENRLTPKISFPWNEIRNISYSDKEFTIKPLDKKIDVFKFNSSKLRVNKLILQLCIGNHDLFMRRRKADSLEVQQMKAQAREEKARKQMERQRLAREKQMREEAERTRDELERRLLQMKEEATMANEALMRSEETADLLAEKAQITEEEAKLLAQKAAEAEQEMQRIKATAIRTEEEKRLMEQKVLEAEVLALKMAEESERRAKEADQLKQDLQEAREAERRAKQKLLEIATKPTYPPMNPIPAPLPPDIPSFNLIGDSLSFDFKDTDMKRLSMEIEKEKVEYMEKSKHLQEQLNELKTEIEALKLKERETALDILHNENSDRGGSSKHNTIKKPQAQGRRPICI

Variants of: B1
Assay: reverse yeast two-hybrid deep mutational scan (rY2H-seq): NF2 isoform 7 mutant library as bait mated with wild-type prey strains; selection on medium lacking adenine for non-interacting pairs; NextSeq paired-end sequencing; enrichment vs …
Settings: yeast diploids after mating (RBait_S3 x RPrey_S3), 30 °C, selection for reporter genes on NB agar, HIGHER = WEAKER BINDING (the opposite of display enrichments): higher = stronger loss of interaction: reverse Y2H selects yeast in which bait and prey do NOT interact (growth without adenine), so a …, hits-only table, scale: rY2H score, numbering: uniprot, sequence starts at 1
[1] = with EMILIN1 (elastin microfibril interfacer 1), Q9Y6C2, human ABL2 co-expressed as the kinase-dead K35M mutant …
[2] = with NF2 C-terminal domain (wild type; homomeric NF2-NF2 interaction), P35240, human ABL2 co-expressed as the kinase-dead K35M mutant …, partner unresolved
[3] = with EMILIN1 (elastin microfibril interfacer 1), Q9Y6C2, human tyrosine kinase ABL2 co-expressed as the active kinase …
[4] = with KDM1A (lysine-specific histone demethylase 1A; the table's label AOF2 is a gene synonym of KDM1A), O60341, human ABL2 co-expressed as the kinase-dead K35M mutant …
[5] = with PIK3R3 (phosphatidylinositol 3-kinase regulatory subunit gamma), Q92569, human tyrosine kinase ABL2 co-expressed as the active kinase …
[6] = with KDM1A (lysine-specific histone demethylase 1A; the table's label AOF2 is a gene synonym of KDM1A), O60341, human tyrosine kinase ABL2 co-expressed as the active kinase …

Row | enrichment [1] | enrichment [2] | enrichment [3] | enrichment [4] | enrichment [5] | enrichment [6] | Variant
1 | 3.93 and 2.71 | – | – | – | – | – | R383L
2 | 2.05 | – | 2.49 | – | – | – | L371K
3 | 1.53 | – | – | – | – | – | L390W
4 | 3.61 | 2.88 | – | – | 6.39 | – | R341E
5 | 2.72 and 2.96 | – | 3.96 and 3.74 | 3.54 and 3.02 | – | 2.75 | E349T
6 | 3.3 and 9.12 | 1.9 | 3.94 | 4.91 | – | – | L342E
7 | 1.65 and 3.1 | – | 2.14 and 6.11 | 6.76 and 4.54 | – | 1.63 | L342K
8 | 6.16 | – | 4.37 | – | 5.97 | – | D476K
9 | 1.6 | 1.76 | – | 2.38 | 1.85 and 3.91 | – | P405E
10 | 2.04 | – | – | 1.66 | – | – | T397A
11 | 1.9 | – | – | – | – | – | T429L
12 | 2.19 | – | – | – | – | – | A333T
13 | 1.59 and 1.85 | – | – | – | 1.39 | 3.11 | I334L
14 | 2.98 | – | – | – | – | – | K427T
15 | 2.33 and 1.87 | 2.41 | – | 3.23 | – | – | V347E
16 | 2.01 | – | – | – | – | – | D484A
17 | 1.87 | – | – | – | – | – | V352E
18 | 4.41 | 3.74 and 2.38 | – | 8.75 | 4.41 | – | T473L
19 | 2.05 | – | 2.9 | 2 | – | – | R379A
20 | 2.14 | – | – | – | – | – | P400A
21 | 1.95 | – | 4.8 and 3.36 | – | – | – | A350K
22 | 5.56 | 4.21 | – | – | – | – | A378K
23 | 1.5 | 2.76 | 5.32 | – | – | – | R364E

Row | enrichment [1] | enrichment [2] | enrichment [3] | enrichment [4] | enrichment [5] | enrichment [6] | Variant
24 | 1.61 and 2.83 | – | – | – | 1.66 | 4.55 | P396A
25 | 1.7 | 2.48 | – | – | – | – | H491K
26 | 1.36 | – | – | – | – | 3.19 | Y398A
27 | 2.48 | – | – | – | – | – | M357K
28 | 2.46 | 3.35 and 2.55 | – | 1.48 and 1.82 | 1.63 | 3.03 | P409L
29 | 1.4 | – | – | – | 2.31 | – | T332L
30 | 4.98 and 1.87 | – | 2.07 | – | – | – | T332D
31 | 35.1 | – | 43.3 | 67.9 and 31.8 | – | – | R335A
32 | 1.6 | 3.03 | – | – | 1.74 | – | A385K
33 | 1.74 | 1.47 and 2.16 | – | 1.79 | – | 1.94 | A385L
34 | 1.52 | 2.16 | – | – | – | – | I507R
35 | 5.53 and 3.24 | – | 4.46 and 4.21 | 1.68 | – | – | K372E
36 | 3.5 | – | 1.81 | – | – | 3.6 | M343K
37 | 1.74 | 1.65 | – | – | – | – | E339L
38 | 2.51 | – | 1.94 | – | – | – | E339A
39 | 1.65 | – | – | – | 1.72 | 2.29 | L417K
40 | 1.49 | – | – | – | – | – | G419K
41 | 2.41 | – | – | – | – | – | G419V
42 | 2.14 | – | – | – | – | – | N482K
43 | 1.61 | – | – | 3.75 | – | – | D430L
44 | 16.4 | – | – | 19.8 | – | – | I418W
45 | 2.8 and 1.9 | – | 1.83 | 4.14 and 1.58 | – | – | K330E

Second part, the variant before the results:

Row | Variant | enrichment [1] | enrichment [2] | enrichment [3] | enrichment [4] | enrichment [5] | enrichment [6]
46 | H159S | 21.9 | 18 | – | – | – | –
47 | D162L | 3.3 | 2.21 | – | 2.41 | – | –
48 | A320L | 2.52 | – | 3.39 | 4.56 and 4.18 | – | –
49 | A240S | 2.4 | – | – | – | – | 1.71
50 | L301E | 7.29 | 3.42 | 1.77 | 4.8 | – | –
51 | R270L | 1.78 | 2.39 | 6.66 | – | – | –
52 | K66A | 2.97 | – | 3.9 | 3.6 | 5.98 | –
53 | T308K | 2.66 and 1.9 | 5.45 | 2.2 and 3.37 | 2.96 | – | 2.24
54 | R268P | 1.95 | – | – | – | – | –
55 | Y161K | 4.91 | – | – | 3.06 | 5.71 | 8.45
56 | N165E | 5.14 and 5.74 | 5.73 | 3.48 and 2.42 | 11.1 and 8.25 | 7.65 and 9.27 | 4.76 and 3.86
57 | K15A | 6.29 | – | 6.35 and 3.55 | 13.9 | 7.57 | 2.57
58 | R113C | 3.78 and 3.75 | – | 7.86 and 3.66 | 4.82 and 6.06 | 7.41 | 4.42 and 5.11
59 | E267A | 2.15 | – | – | – | – | –
60 | K318E | 3.15 | – | – | – | – | 1.81
61 | P163K | 5.55 | – | – | 7.04 | – | 5.58
62 | V74L | 3.98 | – | – | – | – | –
63 | L57E | 1.73 | – | – | – | – | –
64 | P87S | 1.62 | – | 1.61 | 2.56 | 2.86 | 3.13
65 | R104E | 3.93 | – | – | – | – | –
66 | L151R | 3.32 and 4.31 | – | 6.23 and 2.68 | 3.69 | – | –
67 | E303V | 5.6 and 16.3 | – | – | – | – | –
68 | E177L | 4.46 | 5.54 | 2.3 | – | – | –
69 | I329L | 3 | 1.91 and 3.47 | 2.26 and 2.09 | 4.07 | – | 3.51
70 | Q327K | 1.55 | – | – | – | – | –
71 | E272K | 1.57 | 3.42 and 3.26 | – | 3.01 and 2.96 | 2.55 and 1.61 and 4.74 | 1.77
72 | T97I | 1.62 | – | – | – | – | 1.95

Row | Variant | enrichment [1] | enrichment [2] | enrichment [3] | enrichment [4] | enrichment [5] | enrichment [6]
73 | E164L | 2.39 | – | – | 3.94 | 2.07 | –
74 | E164K | 2.27 | – | – | – | 2.53 | –
75 | E164A | 2.89 and 5.48 | 1.48 | 2.44 | 5.57 | 6.96 | –
76 | R25L | 3.54 | – | – | 4.09 | – | 7.07
77 | L158K | 2.72 | – | 3.39 and 2.28 | – | – | –
78 | L158E | 4.99 | – | 4.25 and 2.98 | – | – | –
79 | M326E | 4.89 | 1.94 | 3.65 | 6.72 | – | 1.86
80 | P174T | 2.95 | – | – | 1.5 and 1.57 and 1.64 | 2.16 and 1.7 | –
81 | A319E | 2.5 | 1.39 and 4.04 | 5.2 and 4.57 | – | 4.37 | 5.63
82 | G78A | 3.44 | – | – | – | – | –
83 | K246L | 3.03 and 1.45 | – | – | – | – | –
84 | D30A | 6.06 | – | – | – | – | –
85 | G135E | 2.42 | – | – | 2.61 | – | –
86 | I141A | 20.7 | – | – | 21.3 and 14.9 | – | 30.8
87 | R293E | 2.19 | – | 2.64 | – | – | –
88 | M122E | 4.7 | – | – | – | – | –
89 | G219E | 1.55 | – | – | – | – | –
90 | P52E | 9.88 | – | – | – | – | –
91 | N137L | 2.2 | – | 2.24 | – | 1.5 | 1.53
92 | L156P | 2.26 | 3.25 and 1.98 | – | 3.08 and 3.61 | – | 1.95
93 | R115C | 2.2 | – | – | 3.51 and 3.33 | 1.62 | 3.91
94 | L58K | 3.39 | 2.82 | 9.82 and 9.59 | 7.46 and 14.7 | – | 7.51
95 | R226G | 1.63 | – | – | – | – | –
96 | E265L | 3.19 | – | 3.78 | 7.66 | – | 4.47
97 | E265K | 4.95 | – | – | – | – | –
98 | R263K | 2.14 | – | – | 1.91 | – | –
